Source: article PMC5756609

Target: FcγR (on DIV 7 primary rat hippocampal cells, Erk phosphorylation assay)

How did the ratio of pErk to Erk (western blot, percentage of vehicle controls) in DIV 7 hippocampal cell cultures exposed for 30 min to IgG-IC at 10 or 100 μg/ml; increased at 10 μg/ml but not at 100 μg/ml turn out when “IgG immune complex (IgG-IC): pre-complexed mouse IgG and rat anti-mouse IgG, 1:1 ratio (w/w)” was run?
Its ratio of pErk to Erk (western blot, percentage of vehicle controls) in DIV 7 hippocampal cell cultures exposed for 30 min to IgG-IC at 10 or 100 μg/ml; increased at 10 μg/ml but not at 100 μg/ml is 60.4.
